Paper PMC5546038, “Engineering the fragment crystallizable (Fc) region of human IgG1 multimers and monomers to fine-tune interactions with sialic acid-dependent receptors” (The Journal of Biological Chemistry, 2017)
Changes are numbered by the printed parent chain. In names and notes the source's numbering stands.

T1: hexa-Fc N297A/N563A (human)
T1 chain: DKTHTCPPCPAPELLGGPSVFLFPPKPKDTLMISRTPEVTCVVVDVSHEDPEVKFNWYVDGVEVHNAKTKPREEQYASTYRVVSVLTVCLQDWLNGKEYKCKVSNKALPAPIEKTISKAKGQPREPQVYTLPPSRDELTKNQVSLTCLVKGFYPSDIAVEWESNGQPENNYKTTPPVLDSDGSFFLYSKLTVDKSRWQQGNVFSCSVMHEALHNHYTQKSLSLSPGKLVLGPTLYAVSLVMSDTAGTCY

B1: hexa-Fc N297A/N563A (other)
chain: T1 chain
modifications: no N-glycans; multimer, approximately dodecamers of Fc / no N-glycans; multimer, approximately dodecamers of Fc
B2: hexa-Fc D221N/N297A/N563A (other)
chain: T1 chain with D1N
modifications: N-linked glycan at Asn-221

Assays:
hexa-Fc N297A/N563A = biological target: T1, hexa-Fc N297A/N563A; assay: SEC + other: non-reducing SDS-PAGE; molecular mass ∼650–700 kDa; SEC shown for N563A (supplemental Fig. S2); sizes counted in Fc units of two chains; conditions: both partners purified
[1] = biological target: the molecule itself; assay: as above

Binder | stoichiometry N (hexa-Fc N297A/N563A) | stoichiometry N [1]
B1 | ~12 | 
B2 |  | ~12
